First the molecules themselves.
B1: Keratin-associated protein 3-2 (Homo sapiens), Q9BYR7 (parent)
chain: MDCCASRSCSVPTGPATTICSSDKSCRCGVCLPSTCPHTVWLLEPICCDNCPPPCHIPQPCVPTCFLLNSCQPTPGLETLNLTTFTQPCCEPCLPRGC
partner: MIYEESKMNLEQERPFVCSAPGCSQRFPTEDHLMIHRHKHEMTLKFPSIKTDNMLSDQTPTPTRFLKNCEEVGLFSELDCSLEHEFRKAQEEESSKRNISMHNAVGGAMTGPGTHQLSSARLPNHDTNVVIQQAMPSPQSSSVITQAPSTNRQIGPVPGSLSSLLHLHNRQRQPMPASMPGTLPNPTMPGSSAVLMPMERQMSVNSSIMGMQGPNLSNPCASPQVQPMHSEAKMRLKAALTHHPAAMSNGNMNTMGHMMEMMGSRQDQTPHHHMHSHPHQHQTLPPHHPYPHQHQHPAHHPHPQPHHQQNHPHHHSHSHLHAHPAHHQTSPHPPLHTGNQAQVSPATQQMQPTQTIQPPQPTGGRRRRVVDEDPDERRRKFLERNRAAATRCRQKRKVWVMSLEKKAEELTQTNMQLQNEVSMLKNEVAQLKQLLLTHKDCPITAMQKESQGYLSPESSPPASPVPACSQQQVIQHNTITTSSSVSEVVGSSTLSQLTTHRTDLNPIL
B2: F-BAR domain only protein 1 (Homo sapiens), O14526 (parent)
chain: MSYFGEHFWGEKNHGFEVLYHSVKQGPISTKELADFIRERATIEETYSKAMAKLSKLASNGTPMGTFAPLWEVFRVSSDKLALCHLELTRKLQDLIKDVLRYGEEQLKTHKKCKEEVVSTLDAVQVLSGVSQLLPKSRENYLNRCMDQERLRRESTSQKEMDKAETKTKKAAESLRRSVEKYNSARADFEQKMLDSALRFQAMEETHLRHMKALLGSYAHSVEDTHVQIGQVHEEFKQNIENVSVEMLLRKFAESKGTGREKPGPLDFEAYSAAALQEAMKRLRGAKAFRLPGLSRREREPEPPAAVDFLEPDSGTCPEVDEEGFTVRPDVTQNSTAEPSRFSSSDSDFDDEEPRKFYVHIKPAPARAPACSPEAAAAQLRATAGSLILPPGPGGTMKRHSSRDAAGKPQRPRSAPRTSSCAERLQSEEQVSKNLFGPPLESAFDHEDFTGSSSLGFTSSPSPFSSSSPENVEDSGLDSPSHAAPGPSPDSWVPRPGTPQSPPSCRAPPPEARGIRAPPLPDSPQPLASSPGPWGLEALAGGDLMPAPADPTAREGLAAPPRRLRSRKVSCPLTRSNGDLSRSLSPSPLGSSAASTALERPSFLSQTGHGVSRGPSPVVLGSQDALPIATAFTEYVHAYFRGHSPSCLARVTGELTMTFPAGIVRVFSGTPPPPVLSFRLVHTTAIEHFQPNADLLFSDPSQSDPETKDFWLNMAALTEALQRQAEQNPTASYYNVVLLRYQFSRPGPQSVPLQLSAHWQCGATLTQVSVEYGYRPGATAVPTPLTNVQILLPVGEPVTNVRLQPAATWNLEEKRLTWRLPDVSEAGGSGRLSASWEPLSGPSTPSPVAAQFTSEGTTLSGVDLELVGSGYRMSLVKRRFATGMYLVSC
B3: E3 ubiquitin-protein ligase MARCHF5 (Homo sapiens), Q9NX47 (parent)
chain: MPDQALQQMLDRSCWVCFATDEDDRTAEWVRPCRCRGSTKWVHQACLQRWVDEKQRGNSTARVACPQCNAEYLIVFPKLGPVVYVLDLADRLISKACPFAAAGIMVGSIYWTAVTYGAVTVMQVVGHKEGLDVMERADPLFLLIGLPTIPVMLILGKMIRWEDYVLRLWRKYSNKLQILNSIFPGIGCPVPRIPAEANPLADHVSATRILCGALVFPTIATIVGKLMFSSVNSNLQRTILGGIAFVAIKGAFKVYFKQQQYLRQAHRKILNYPEQEEA
partner: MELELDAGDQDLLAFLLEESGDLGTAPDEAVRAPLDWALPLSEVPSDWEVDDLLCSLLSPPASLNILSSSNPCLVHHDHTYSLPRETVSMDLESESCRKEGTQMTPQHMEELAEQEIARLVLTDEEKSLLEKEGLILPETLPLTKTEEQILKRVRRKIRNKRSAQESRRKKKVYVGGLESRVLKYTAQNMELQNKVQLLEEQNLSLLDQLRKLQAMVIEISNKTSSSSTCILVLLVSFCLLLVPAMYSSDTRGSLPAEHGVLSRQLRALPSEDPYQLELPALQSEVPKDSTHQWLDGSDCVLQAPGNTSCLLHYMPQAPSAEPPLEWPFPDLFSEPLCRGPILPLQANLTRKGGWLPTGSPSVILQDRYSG
B4: Ligand-dependent corepressor (Homo sapiens), Q96JN0 (parent)
chain: MQRMIQQFAAEYTSKNSSTQDPSQPNSTKNQSLPKASPVTTSPTAATTQNPVLSKLLMADQDSPLDLTVRKSQSEPSEQDGVLDLSTKKSPCAGSTSLSHSPGCSSTQGNGRPGRPSQYRPDGLRSGDGVPPRSLQDGTREGFGHSTSLKVPLARSLQISEELLSRNQLSTAASLGPSGLQNHGQHLILSREASWAKPHYEFNLSRMKFRGNGALSNISDLPFLAENSAFPKMALQAKQDGKKDVSHSSPVDLKIPQVRGMDLSWESRTGDQYSYSSLVMGSQTESALSKKLRAILPKQSRKSMLDAGPDSWGSDAEQSTSGQPYPTSDQEGDPGSKQPRKKRGRYRQYNSEILEEAISVVMSGKMSVSKAQSIYGIPHSTLEYKVKERLGTLKNPPKKKMKLMRSEGPDVSVKIELDPQGEAAQSANESKNE
B5: Cyclin-H (Homo sapiens), P51946 (parent)
chain: MYHNSSQKRHWTFSSEEQLARLRADANRKFRCKAVANGKVLPNDPVFLEPHEEMTLCKYYEKRLLEFCSVFKPAMPRSVVGTACMYFKRFYLNNSVMEYHPRIIMLTCAFLACKVDEFNVSSPQFVGNLRESPLGQEKALEQILEYELLLIQQLNFHLIVHNPYRPFEGFLIDLKTRYPILENPEILRKTADDFLNRIALTDAYLLYTPSQIALTAILSSASRAGITMESYLSESLMLKENRTCLSQLLDIMKSMRNLVKKYEPPRSEEVAVLKQKLERCHSAELALNVITKKRKGYEDDDYVSKKSKHEEEEWTDDDLVESL
partner: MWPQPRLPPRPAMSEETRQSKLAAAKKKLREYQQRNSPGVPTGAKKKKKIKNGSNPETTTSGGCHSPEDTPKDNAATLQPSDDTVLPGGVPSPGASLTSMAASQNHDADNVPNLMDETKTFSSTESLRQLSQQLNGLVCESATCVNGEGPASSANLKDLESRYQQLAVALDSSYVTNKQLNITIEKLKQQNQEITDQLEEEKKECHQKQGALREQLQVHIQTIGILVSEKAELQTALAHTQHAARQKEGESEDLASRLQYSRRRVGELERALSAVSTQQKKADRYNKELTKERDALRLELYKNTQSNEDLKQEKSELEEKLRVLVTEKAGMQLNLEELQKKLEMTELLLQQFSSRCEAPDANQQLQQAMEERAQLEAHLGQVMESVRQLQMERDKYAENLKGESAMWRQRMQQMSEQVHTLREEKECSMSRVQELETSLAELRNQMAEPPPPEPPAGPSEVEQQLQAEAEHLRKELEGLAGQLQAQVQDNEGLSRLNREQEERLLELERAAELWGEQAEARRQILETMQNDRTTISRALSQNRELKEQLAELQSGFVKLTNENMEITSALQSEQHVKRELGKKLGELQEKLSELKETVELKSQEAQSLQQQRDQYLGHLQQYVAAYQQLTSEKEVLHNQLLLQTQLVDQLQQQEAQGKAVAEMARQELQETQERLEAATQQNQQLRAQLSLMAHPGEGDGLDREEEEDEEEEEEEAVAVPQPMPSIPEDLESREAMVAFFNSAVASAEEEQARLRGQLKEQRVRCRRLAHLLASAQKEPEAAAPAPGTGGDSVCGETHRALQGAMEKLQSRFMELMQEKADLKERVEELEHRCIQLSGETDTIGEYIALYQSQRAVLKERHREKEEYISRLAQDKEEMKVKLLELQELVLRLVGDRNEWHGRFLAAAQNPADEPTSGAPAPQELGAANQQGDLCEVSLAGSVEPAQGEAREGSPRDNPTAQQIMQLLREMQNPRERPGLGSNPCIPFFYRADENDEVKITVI

The values that follow come from IntAct's records for PubMed 31515488.

The first test covers variants of B1. The conditions noted are these: with creb5_human CREB5, Q02930.
As to MDCCASRSCSVPTGPATTICSSDKSCCCGVCLPSTCPHTVWLLEPICCDNCPPPCHIPQPCVPTCFLLNSCQPTPGLETLNLTTFTQPCCEPCLPRGC, the “effect of a mutation on the interaction” value is “with no effect”. For MDCCASRGCSVPTGPATTICSSDKSCRCGVCLPSTCPHTVWLLEPICCDNCPPPCHIPQPCVPTCFLLNSCQPTPGLETLNLTTFTQPCCEPCLPRGC, the “effect of a mutation on the interaction” value is given as “with no effect”.

Variants of B2 are the subject of another test. The conditions noted are these: with ptk6_human PTK6, Q13882.
Consider E423G, for which the “effect of a mutation on the interaction” value is reported as “with no effect”.

Variants of B2 are the subject of a further test. The conditions noted are these: with exos5_human EXOSC5, Q9NQT4.
exos5_human EXOSC5, Q9NQT4, sequence (Q9NQT4 whole entry): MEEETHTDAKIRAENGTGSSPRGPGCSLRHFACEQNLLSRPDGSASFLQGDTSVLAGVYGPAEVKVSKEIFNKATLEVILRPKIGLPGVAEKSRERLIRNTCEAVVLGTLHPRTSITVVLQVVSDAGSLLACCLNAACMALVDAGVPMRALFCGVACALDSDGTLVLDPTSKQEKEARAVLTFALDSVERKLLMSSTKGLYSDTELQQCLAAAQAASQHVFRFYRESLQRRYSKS
As to E423G, the “effect of a mutation on the interaction” value is recorded as “with no effect”.

The next test covers variants of B3. Particulars: with creb3_human CREB3, O43889.
Regarding MPDQALQQMLDRSCWVCFAADEDDRTAEWVRPCRCRGSTKWVHQACLQRWVDEKQRGNSTARVACPQCNAEYLIVFPKLGPVVYVLDLADRLISKACPFAAAGIMVGSIYWTAVTYGAVTVMQVVGHKEGLDVMERADPLFLLIGLPTIPVMLILGKMIRWEDYVLRLWRKYSNKLQILNSIFPGIGCPVPRIPAEANPLADHVSATRILCGALVFPTIATIVGKLMFSSVNSNLQRTILGGIAFVAIKGAFKVYFKQQQYLRQAHRKILNYPEQEEA [T20A], the “effect of a mutation on the interaction” value is “with no effect”.

In the next test the parent is B4. Particulars: with ctbp2_human CTBP2, P56545.
In the case of MQRMIQQFAAEYTSKNSSTQDPSQPNSTKNQSLPKASPVTTSPMAATTQNPVLSKLLMADQDSPLDLTVRKSQSEPSEQDGVLDLSTKKSPCAGSTSLSHSPGCSSTQGNGRPGRPSQYRPDGLRSGDGVPPRSLQDGTREGFGHSTSLKVPLARSLQISEELLSRNQLSTAASLGPSGLQNHGQHLILSREASWAKPHYEFNLSRMKFRGNGALSNISDLPFLAENSAFPKMALQAKQDGKKDVSHSSPVDLKIPQVRGMDLSWESRTGDQYSYSSLVMGSQTESALSKKLRAILPKQSRKSMLDAGPDSWGSDAEQSTSGQPYPTSDQEGDPGSKQPRKKRGRYRQYNSEILEEAISVVMSGKMSVSKAQSIYGIPHSTLEYKVKERLGTLKNPPKKKMKLMRSEGPDVSVKIELDPQGEAAQSANESKNE [T44M], the “effect of a mutation on the interaction” value is recorded as “with no effect”.

The variants in a further test derive from B5. Particulars: with goga2_human GOLGA2, Q08379.
Regarding MYHNSSQKRHWTFSSEEQLARLRADANRKFRCKAVANGKVLPNDPVFLEPHEEMTLCKYYEKRLLEFCSVFKPAMPRSVVGTACMYFKRFYLNNSVMEYHPRIIMLTCAFLACKVDEFNVSSPQFVGNLRESPLGQEKALEQILEYELLLIQQLTFHLIVHNPYRPFEGFLIDLKTRYPILENPEILRKTADDFLNRIALTDAYLLYTPSQIALTAILSSASRAGITMESYLSESLMLKENRTCLSQLLDIMKSMRNLVKKYEPPRSEEVAVLKQKLERCHSAELALNVITKKRKGYEDDDYVSKKSKHEEEEWTDDDLVESL [N155T], the “effect of a mutation on the interaction” value was “disrupting interaction strength”.
